# Measurements taken from patent publication US20240287501A1 (VIB VZW, published 2024).
# T1: GFP-tagged PDC1 (Saccharomyces cerevisiae, UniProt P06169 2-563)
# T1 construct: Yeast GFP Fusion Collection strain; also called Yeast GFP fusion collection GFP(+)12, F8; not shown: GFP tag
# T1 sequence (looked up): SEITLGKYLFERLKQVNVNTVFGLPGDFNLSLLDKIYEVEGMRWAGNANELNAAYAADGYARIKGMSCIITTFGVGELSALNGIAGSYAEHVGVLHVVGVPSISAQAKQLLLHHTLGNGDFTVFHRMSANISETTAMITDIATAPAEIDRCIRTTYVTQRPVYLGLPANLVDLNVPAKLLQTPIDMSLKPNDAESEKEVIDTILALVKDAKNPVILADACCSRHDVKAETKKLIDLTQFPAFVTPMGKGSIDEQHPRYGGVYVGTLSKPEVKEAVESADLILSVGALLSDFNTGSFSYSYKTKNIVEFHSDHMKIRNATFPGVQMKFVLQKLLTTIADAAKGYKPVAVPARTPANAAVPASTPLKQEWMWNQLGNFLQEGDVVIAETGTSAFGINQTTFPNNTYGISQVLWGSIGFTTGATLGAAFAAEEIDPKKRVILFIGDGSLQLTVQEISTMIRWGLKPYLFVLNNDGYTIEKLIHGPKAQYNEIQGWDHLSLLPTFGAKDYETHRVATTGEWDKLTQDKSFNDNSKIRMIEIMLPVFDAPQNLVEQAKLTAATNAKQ
# T2: PDC1 (native, from EBY100 lysate) (Saccharomyces cerevisiae, UniProt P06169 2-563)
# T2 construct: mature; Endogenous untagged protein; also called YLR044C
# T2 sequence (looked up): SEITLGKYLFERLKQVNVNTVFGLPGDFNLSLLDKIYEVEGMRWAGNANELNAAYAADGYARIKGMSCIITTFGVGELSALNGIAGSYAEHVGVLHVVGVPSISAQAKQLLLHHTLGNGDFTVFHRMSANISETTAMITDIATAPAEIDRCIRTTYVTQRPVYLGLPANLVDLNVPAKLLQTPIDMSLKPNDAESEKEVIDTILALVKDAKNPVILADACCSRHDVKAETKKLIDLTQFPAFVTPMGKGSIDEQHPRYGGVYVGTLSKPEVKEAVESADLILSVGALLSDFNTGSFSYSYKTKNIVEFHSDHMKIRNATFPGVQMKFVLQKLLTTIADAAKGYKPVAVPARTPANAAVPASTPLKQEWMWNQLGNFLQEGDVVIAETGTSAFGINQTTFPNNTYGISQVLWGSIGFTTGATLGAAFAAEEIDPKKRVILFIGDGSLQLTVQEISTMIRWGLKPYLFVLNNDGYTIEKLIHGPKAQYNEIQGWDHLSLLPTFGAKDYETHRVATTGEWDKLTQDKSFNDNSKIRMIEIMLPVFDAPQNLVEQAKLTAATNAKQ
# What was measured:
# [1] = molecular target: T3, PGI1 (native, un-tagged, from EBY100 lysate) (Saccharomyces cerevisiae, UniProt P12709 2-554); assay: co-immunoprecipitation, Nb coupled to NHS-agarose beads, EBY100 yeast lysate (native target), SDS-PAGE
# T3 construct: mature; Endogenous untagged protein, 61 kDa band; also called YBR196C; endogenous PGI1
# T3 sequence (P12709 2-554): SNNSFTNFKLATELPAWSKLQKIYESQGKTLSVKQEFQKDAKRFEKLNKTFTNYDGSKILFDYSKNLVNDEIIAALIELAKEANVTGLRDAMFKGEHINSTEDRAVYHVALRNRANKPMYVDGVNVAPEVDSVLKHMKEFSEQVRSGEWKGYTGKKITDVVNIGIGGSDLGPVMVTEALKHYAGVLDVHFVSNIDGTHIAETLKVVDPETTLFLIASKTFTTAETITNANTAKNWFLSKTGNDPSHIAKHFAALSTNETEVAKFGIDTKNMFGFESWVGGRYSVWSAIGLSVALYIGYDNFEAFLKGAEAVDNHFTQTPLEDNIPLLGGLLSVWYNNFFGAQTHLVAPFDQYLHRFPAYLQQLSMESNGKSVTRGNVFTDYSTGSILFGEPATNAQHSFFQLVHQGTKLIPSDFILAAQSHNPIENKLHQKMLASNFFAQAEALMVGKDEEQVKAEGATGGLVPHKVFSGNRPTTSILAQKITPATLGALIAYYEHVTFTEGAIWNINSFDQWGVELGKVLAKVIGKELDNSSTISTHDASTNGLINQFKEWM
# Experimental: (§1) Three PGI1-specific Nanobodies (55=Nb clone CA17455 corresponding to SEQ ID NO: 15, 56=CA17456-SEQ ID NO: 16, 57=CA17457-SEQ ID NO: 17) were characterized by co-immunoprecipitation assays. Each PGI1-specific Nanobodies was covalently linked to NHS-agarose beads. The beads that were functionalized with these PGI1-specific Nanobodies were incubated for an hour at 4° C. on a rotating device with either an EBY100 lysate or the lysate of the engineered Yeast strain expressing PGI1 (Yeast GFP fusion collection reference: GFP(+)12, H11) as a GFP-tagged protein. After washing, these beads were resuspended in SDS-PAGE loading dye and analyzed on SDS-PAGE (FIG. 7A). Separated proteins were transferred to a PVDF membrane and the Western blot (FIG. 7B) was developed with GFP-specific antibody to confirm the presence of GFP-tagged PGI1.
# GFP-tagged PGI1 = molecular target: T4, GFP-tagged PGI1 (Saccharomyces cerevisiae, UniProt P12709 2-554); assay: co-immunoprecipitation, Nb coupled to NHS-agarose beads, lysate of the yeast strain expressing the GFP-tagged target, SDS-PAGE
# T4 construct: Yeast GFP Fusion Collection strain; 88 kDa band; also called GFP-PGI1; Yeast GFP fusion collection GFP(+)12, H11; not shown: GFP tag
# T4 sequence (P12709 2-554): as above
# Experimental: as §1
# GFP-tagged PDC1 = molecular target: T1, GFP-tagged PDC1; assay: as above
# Experimental: (§2) Two PDC1-specific Nanobodies (51=Nb clone CA17451 corresponding to SEQ ID NO: 7, 52=CA17452-SEQ ID NO: 8) were characterized by co-immunoprecipitation assays. Each PDC1-specific Nanobodies was covalently linked to NHS-agarose beads. The beads that were functionalized with these PDC1-specific Nanobodies were incubated for an hour at 4° C. on a rotating device with either an EBY100 lysate or the lysate of the engineered Yeast strain expressing PDC1 (Yeast GFP fusion collection reference: GFP(+)12, F8) as a GFP-tagged protein. After washing, these beads were resuspended in SDS-PAGE loading dye and analyzed on SDS-PAGE (FIG. 5A). Separated proteins were transferred to a PVDF membrane and the Western blot (FIG. 5B) was developed with GFP-specific antibody to confirm the presence of GFP-tagged PDC1.
# [2] = molecular target: T2, PDC1 (native, from EBY100 lysate); assay: co-immunoprecipitation, Nb coupled to NHS-agarose beads, EBY100 yeast lysate (native target), SDS-PAGE
# Experimental: as §2
# GFP-tagged SSA1 = molecular target: T5, GFP-tagged SSA1 (Saccharomyces cerevisiae, UniProt P10591 2-642); assay: co-immunoprecipitation, Nb coupled to NHS-agarose beads, lysate of the yeast strain expressing the GFP-tagged target, Western blot anti-GFP
# T5 construct: Yeast GFP Fusion Collection strain; also called Yeast GFP fusion collection GFP(+)10, E4; not shown: GFP tag
# T5 sequence (P10591 2-642): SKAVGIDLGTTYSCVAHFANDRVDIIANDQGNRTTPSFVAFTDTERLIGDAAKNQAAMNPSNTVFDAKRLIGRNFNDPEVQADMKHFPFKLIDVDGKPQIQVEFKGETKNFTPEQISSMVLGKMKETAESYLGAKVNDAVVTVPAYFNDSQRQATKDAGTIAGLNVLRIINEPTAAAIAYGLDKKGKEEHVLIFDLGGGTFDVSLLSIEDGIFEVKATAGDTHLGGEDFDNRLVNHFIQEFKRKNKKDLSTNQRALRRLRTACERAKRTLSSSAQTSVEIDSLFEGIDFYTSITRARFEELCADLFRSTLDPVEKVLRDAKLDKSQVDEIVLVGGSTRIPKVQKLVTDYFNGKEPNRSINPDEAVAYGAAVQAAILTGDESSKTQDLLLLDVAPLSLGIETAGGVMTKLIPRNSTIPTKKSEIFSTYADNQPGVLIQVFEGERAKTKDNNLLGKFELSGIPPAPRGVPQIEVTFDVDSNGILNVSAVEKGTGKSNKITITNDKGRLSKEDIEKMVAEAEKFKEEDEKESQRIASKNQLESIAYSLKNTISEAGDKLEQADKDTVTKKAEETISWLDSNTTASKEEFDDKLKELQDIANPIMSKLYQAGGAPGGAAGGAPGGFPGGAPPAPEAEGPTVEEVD
# Experimental: Six SSA1-specific Nanobodies (60=Nb clone CA17560 corresponding to SEQ ID NO: 19, 61=CA17561-SEQ ID NO: 20, 62=CA17562-SEQ ID NO: 21, 63=CA17563-SEQ ID NO: 22, 64=CA17564-SEQ ID NO: 23, 65=CA17565-SEQ ID NO: 24) were characterized by co-immunoprecipitation assays. Each SSA1-specific Nanobodies was covalently linked to NHS-agarose beads. The beads that were functionalized with these SSA1-specific Nanobodies were incubated for an hour at 4° C. on a rotating device with either an EBY100 lysate or the lysate of the engineered Yeast strain expressing SSA1 (Yeast GFP fusion collection reference: GFP(+)10, E4) as a GFP-tagged protein. After washing, these beads were resuspended in SDS-PAGE loading dye and analyzed on SDS-PAGE (FIG. 6A). Separated proteins were transferred to a PVDF membrane and the Western blot (FIG. 6B) was developed with GFP-specific antibody to confirm the presence of GFP-tagged SSA1.
# [3] = molecular target: T6, SSA1 (native, from EBY100 lysate) (Saccharomyces cerevisiae, UniProt P10591 2-642); assay: co-IP, Nb on NHS-agarose beads, EBY100 yeast lysate, SDS-PAGE
# T6 construct: mature; Endogenous untagged protein; also called YAL005C
# T6 sequence (P10591 2-642): as above
Binder,binding result [1],binding result (GFP-tagged PGI1),binding result (GFP-tagged PDC1),binding result [2],other results
"CA17457 (VHH, C-terminal 6xHis-EPEA tag is part of the entry) VHH: QVQLVESGGGLVQTGGSLRLSCAASGGHFSNLAMGWFRQAPGKEREFVAAIGRSQFNLLYSNFVKGRFTISRDNAENTVYLQLNSLNSEDTAIYYCASSGGVSDWRGIMTTGARLARNYDYWGQGTQVTVSS",binds,binds,–,–,–
"CA17451 (VHH, C-terminal 6xHis-EPEA tag is part of the entry) VHH: QVQLVESGGGLVQPGGSLRLSCAASGISFSINTLGWYRQAPGKQRELVATVTTGGSTYYVDSAKGRFTVSRDNAKNTVYLQMNSLNSEDTAVYYCKLERYGVWGQGTQVTVSS",–,–,binds,binds,–
"CA17455 (VHH, C-terminal 6xHis-EPEA tag is part of the entry; also called PGI1-specific trapper/stripper) VHH: QVQLVESGGGLVQPGGSLRLSCAASGITFPSYRLSWYRQAPGKERELVAAITSDGGTTNYADFVKGRFTISRDNTKNTVYLQMNSLKPEDTAVYYCKAQYFSTPLTYWGQGTQVTVSS",binds,binds,–,–,–
"CA17564 (VHH, C-terminal 6xHis-EPEA tag is part of the entry) VHH: QVQLVESGGGLVQPGDSLRLSCVVSVQHFGNYIVGWFRQPPGKEREFVSAISRGLRTYYADSVKGRVTISRDNAKNSVYLQMNSLKPEDTAVYYCAGSRLLEGAPRDSRGYNNWGQGTQVTVSS",–,–,–,–,binding result (GFP-tagged SSA1): binds; binding result [3]: binds
"CA17452 (VHH, C-terminal 6xHis-EPEA tag is part of the entry) VHH: QVQLVESGGGLVQAGASLTLSCAASGRTFNTYSMHWFRQAPGKEREFVAATNWGGNSKFYADSVRGRFTISRDNTKNMVYLQMNSLKPEDTAVYYCAAHRTVVGKTPDYWGQGTQVTVSS",–,–,binds,binds,–
